From the supplement of paper PMC10724198
± gives the standard deviation of the averaged measurements.

Test system: Saccharomyces cerevisiae
Assay: protein stability index of tFT-peptide fusion (C-terminal peptide) (PSI (0-1 scale)); higher = more stable (slower turnover)
Conditions: genetic background: wild type; temperature: 30 C
Method: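 Multiplexed protein stability (MPS) profiling in S. cerevisiae. Random 12-aa peptides (tFT-X12 library) are fused to the C-terminus of a sfGFP-mCherry tandem fluorescent timer, after mCherry and a GGGS linker. Cells are FACS-sorted into 8 mCherry/sfGFP bins and deep-sequenced. The protein stability index (PSI) is the read-weighted bin average, scaled from 0 (unstable) to 1 (stable). Only peptides with >10 reads are reported; cells were grown at 30 °C in SC-His with glucose.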
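Also: PSI is a weighted mean of sequencing reads over stability bins, variants kept only with over 10 reads, mCherry proximal and sfGFP distal, peptide attached via GGGS linker.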

Row | Sequence | protein stability index
1 | GGVGGGAAEGAV | 0.758 ± 0.024
2 | GGVGVGRGVCVF | 0.6187 ± 0.0012
3 | GGVLLPGFSHLL | 0.7133 ± 0.0068
4 | GGVRRSPRAILR | 0.705 ± 0.014
5 | GGVSCYVHRRAR | 0.688 ± 0.06
6 | GGVSGEGFSWVG | 0.66987 ± 0.0004
7 | GGVVACGLRVAS | 0.62 ± 0.058
8 | GGVVGGRAGRGG | 0.617 ± 0.033
9 | GGVVGVEWGAVG | 0.626 ± 0.015
10 | GGVVRGVWVGRG | 0.725 ± 0.028
11 | GGVYVASQGTFV | 0.673 ± 0.021
12 | GGWAGLGAPGVS | 0.697 ± 0.028
13 | GGWCGGGGAWSG | 0.6985 ± 0.0027
14 | GGWGGGCGACVV | 0.72 ± 0.073
15 | GGWGGRSGTEGE | 0.686 ± 0.013
16 | GGWGPGALEVGT | 0.6578 ± 0.0018
17 | GHAPSSCPPPPR | 0.692 ± 0.062
18 | GHCFCRLLPLHW | 0.755 ± 0.025
19 | GHCVALGNRVLH | 0.665 ± 0.068
20 | GHDWRNPRLVED | 0.645 ± 0.062
21 | GHRAEGMWSGGL | 0.751 ± 0.098
22 | GHRRLGNRWSVG | 0.671 ± 0.035
23 | GIDKTNHKQEKN | 0.691 ± 0.0085
24 | GIGFHSREIGER | 0.66 ± 0.055
25 | GIGGNWAVSRNC | 0.73 ± 0.12

Row | Sequence | protein stability index
26 | GIGKADSKRERS | 0.652 ± 0.00097
27 | GIKKKKKKQDKK | 0.728 ± 0.076
28 | GIMPVRENCGVF | 0.6422 ± 0.0048
29 | GIPYALVTPPFP | 0.7724 ± 0.0077
30 | GIRKNIDNNEKI | 0.686 ± 0.03
31 | GITSGRAVGGRA | 0.713 ± 0.011
32 | GIVCGDADMEGG | 0.676 ± 0.051
33 | GKALESLEGQFT | 0.728 ± 0.019
34 | GKEGGRERVANE | 0.639 ± 0.091
35 | GKFTGPLGARSR | 0.658 ± 0.032
36 | GKKPNSGKNKKK | 0.694 ± 0.049
37 | GKMLSRPRKTEN | 0.711 ± 0.03
38 | GKNKSKKEKKEK | 0.668 ± 0.032
39 | GKRETQVEEGAR | 0.765 ± 0.11
40 | GKRYEKVGVEWW | 0.765 ± 0.12
41 | GKTQLIKNIQNI | 0.568 ± 0.023
42 | GKVCGRAEYPQT | 0.719 ± 0.035
43 | GKYEALGRFSPG | 0.71 ± 0.015
44 | GKYQQGFQKVTR | 0.668 ± 0.025
45 | GLAAGGAVMPPL | 0.7188 ± 0.0064
46 | GLAELKSYDGEG | 0.696 ± 0.034
47 | GLAQRAIKNRHR | 0.679 ± 0.11
48 | GLARSICRNYGL | 0.706 ± 0.014
49 | GLASLTGVPRCW | 0.723 ± 0.027
50 | GLCACTSFLVSW | 0.697 ± 0.028

Row | Sequence | protein stability index
51 | GLCAVWSGAGRC | 0.7 ± 0.037
52 | GLCSEETPALFY | 0.7173 ± 0.0043
53 | GLDDLMPGRVLW | 0.666 ± 0.015
54 | GLDEGCRGGEEV | 0.673 ± 0.0092
55 | GLDNNKCTEKKI | 0.665 ± 0.13
56 | GLEPSGLSGGSW | 0.672 ± 0.041
57 | GLGEWGGRGVCG | 0.692 ± 0.015
58 | GLGGRGGAVGEW | 0.67252 ± 0.0004
59 | GLGVMGVGCVGS | 0.653 ± 0.054
60 | GLGVVSVWSGGL | 0.703 ± 0.044
61 | GLLGVRVVAGLG | 0.625 ± 0.032
62 | GLMSVRYSGTGV | 0.6743 ± 0.006
63 | GLNTKAQSRIPM | 0.742 ± 0.018
64 | GLPPLAMPALSI | 0.72 ± 0.057
65 | GLPPLLSPVPLR | 0.646 ± 0.057
66 | GLPSHPAPPSTN | 0.657 ± 0.11
67 | GLPTFLTDSSFW | 0.725 ± 0.039
68 | GLPWRRVGGGAG | 0.644 ± 0.013
69 | GLRCSRVSFFFW | 0.64 ± 0.039
70 | GLRRWLSTAMRR | 0.7339 ± 0.0033
71 | GLSALVVCPSWG | 0.65062 ± 0.00034
72 | GLSRYLTCNNLV | 0.674 ± 0.0075
73 | GLSVSGLWGVFG | 0.629 ± 0.2
74 | GLTGAATVPHSA | 0.732 ± 0.013
75 | GLVRGGCGTVGG | 0.774 ± 0.18

Row | Sequence | protein stability index
76 | GLWCVGGGAVGV | 0.6818 ± 0.004
77 | GLYTRLYIPRPC | 0.739 ± 0.033
78 | GMRRGGGWCRGW | 0.674 ± 0.027
79 | GMTYEKIKNVIE | 0.651 ± 0.025
80 | GNAGGFRSLISW | 0.663 ± 0.065
81 | GNGENKVIVRKS | 0.696 ± 0.045
82 | GNGIRLIPPAYS | 0.725 ± 0.028
83 | GNKMYRSREGNC | 0.6709 ± 0.003
84 | GNTQSIEQALLV | 0.752 ± 0.028
85 | GPFDVLPEPNPG | 0.6348 ± 0.0037
86 | GPFRRLRCTAFI | 0.713 ± 0.059
87 | GPGCDDDASGSV | 0.686 ± 0.013
88 | GPGFRSGVELVW | 0.759 ± 0.069
89 | GPGGTVDLIWGS | 0.703 ± 0.034
90 | GPGRIPLTSALP | 0.63968 ± 0.00049
91 | GPHAPPPSFPAP | 0.718 ± 0.074
92 | GPPPPPPPASPH | 0.715 ± 0.1
93 | GPPPPSPRPTRR | 0.723 ± 0.031
94 | GPPPRCKYLRAS | 0.6348 ± 0.00079
95 | GPPTKLTLNQQK | 0.6286 ± 0.00082
96 | GPRPATTSPLPT | 0.721 ± 0.2
97 | GPRRLGGTSLGI | 0.651 ± 0.098
98 | GPRRLNAYADPF | 0.722 ± 0.082
